For the assay, the target named is purified M22 (Sir22) protein (Streptococcus pyogenes). The experiment in a line: radioligand binding.

With “human C4b-binding protein (C4BP) (from UniProt P04003 49-597; P20851 18-252) (complex)”, the percent of radiolabeled ligand bound in the absence of antiserum stood at 25%.

Source of the values: paper PMC2194224.
